Residue numbers refer to the chain shown, from its start. Names may count otherwise. Like-named read-outs stand apart in the source and are kept apart here.
Key:
human CD73 on cells [1] = biological target: T1, human CD73 on cells (human, UniProt P21589 27-549); assay: cell-based or functional assay
T1 sequence (looked up): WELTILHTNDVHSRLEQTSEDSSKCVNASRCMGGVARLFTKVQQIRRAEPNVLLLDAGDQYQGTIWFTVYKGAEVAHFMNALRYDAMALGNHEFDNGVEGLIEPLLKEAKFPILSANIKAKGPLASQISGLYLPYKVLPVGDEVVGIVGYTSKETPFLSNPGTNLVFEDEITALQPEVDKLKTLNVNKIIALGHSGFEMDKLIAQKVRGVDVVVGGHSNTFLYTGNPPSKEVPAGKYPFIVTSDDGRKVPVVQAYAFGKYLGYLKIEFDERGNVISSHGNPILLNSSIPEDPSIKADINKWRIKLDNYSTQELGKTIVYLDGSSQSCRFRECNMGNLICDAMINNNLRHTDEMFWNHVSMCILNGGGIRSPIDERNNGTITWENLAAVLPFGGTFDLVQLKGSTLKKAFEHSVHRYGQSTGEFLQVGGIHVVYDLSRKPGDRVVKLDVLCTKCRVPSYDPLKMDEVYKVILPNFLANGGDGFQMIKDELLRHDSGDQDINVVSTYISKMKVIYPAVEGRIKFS

human CD73 on cells [2] = biological target: T1, human CD73 on cells; assay: cell-based or functional assay; remark: listed apart in the source
[3] = biological target: T2, recombinant human CD73 protein fused with a 6×His-tag (R&D Systems, 5795EN) (human, UniProt P21589 27-547); assay: cell-based or functional assay
T2 sequence: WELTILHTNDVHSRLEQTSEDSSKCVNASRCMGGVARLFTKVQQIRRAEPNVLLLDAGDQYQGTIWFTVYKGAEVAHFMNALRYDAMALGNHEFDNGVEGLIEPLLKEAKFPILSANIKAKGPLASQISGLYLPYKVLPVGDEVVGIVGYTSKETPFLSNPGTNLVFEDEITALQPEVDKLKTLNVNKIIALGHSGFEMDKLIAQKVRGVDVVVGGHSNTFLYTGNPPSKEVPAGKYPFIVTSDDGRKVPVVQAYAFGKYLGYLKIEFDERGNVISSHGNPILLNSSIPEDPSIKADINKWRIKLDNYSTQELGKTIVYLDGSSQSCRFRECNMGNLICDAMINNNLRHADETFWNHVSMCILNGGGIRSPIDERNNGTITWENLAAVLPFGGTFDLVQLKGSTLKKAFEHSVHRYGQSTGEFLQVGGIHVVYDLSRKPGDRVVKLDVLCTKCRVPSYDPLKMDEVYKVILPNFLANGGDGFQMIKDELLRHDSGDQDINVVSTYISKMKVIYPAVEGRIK

[4] = biological target: T2, recombinant human CD73 protein fused …; assay: SPR; antibody on Protein A chip, CD73-His as analyte
Method: (§1) The sensor chip was regenerated between cycles with a 30-sec injection of 10 mM glycine, pH 1.5. Sensograms were evaluated and fit to a simple Langmuir 1:1 interaction model using the global data analysis option of BiaEvaluation 3.1 software. Data quality was verified by visually inspecting deviations and curve fitting, and by evaluating the parameters of Rmax, Chi2, and Tc.

[5] = biological target: T3, recombinant cynomolgus CD73 protein fused with a 6×His-tag (Sino Biological, 90192-C08H) (cynomolgus, UniProt A0A2K5V5U7 27-547); assay: as above
T3 sequence: T2 sequence with M199T, T353M, V466I
Method: as §1

[6] = biological target: T4, recombinant mouse CD73 protein fused with a 6×His-tag (R&D Systems, 4488EN) (mouse, UniProt Q61503 29-549, limits assumed); assay: as above
T4 sequence (looked up): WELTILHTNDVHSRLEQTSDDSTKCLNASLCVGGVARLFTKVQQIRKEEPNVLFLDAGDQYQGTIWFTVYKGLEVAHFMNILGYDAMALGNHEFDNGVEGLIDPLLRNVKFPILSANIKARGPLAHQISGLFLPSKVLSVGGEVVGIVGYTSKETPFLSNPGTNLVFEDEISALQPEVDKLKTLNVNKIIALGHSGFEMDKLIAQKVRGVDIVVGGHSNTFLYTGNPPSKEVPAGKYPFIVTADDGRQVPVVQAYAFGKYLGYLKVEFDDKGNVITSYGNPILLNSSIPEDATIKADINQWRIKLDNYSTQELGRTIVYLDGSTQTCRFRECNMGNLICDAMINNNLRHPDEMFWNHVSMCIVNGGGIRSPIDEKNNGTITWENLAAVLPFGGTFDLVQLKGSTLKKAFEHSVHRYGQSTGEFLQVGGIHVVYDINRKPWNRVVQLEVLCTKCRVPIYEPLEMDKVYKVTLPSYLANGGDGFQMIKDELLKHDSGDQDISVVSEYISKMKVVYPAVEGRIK
Method: as §1

[7] = biological target: T2, recombinant human CD73 protein fused …; assay: as above; remark: listed apart in the source
Method: as §1

[8] = biological target: T3, recombinant cynomolgus CD73 protein …; assay: as above; remark: listed apart in the source
Method: as §1

human CD73 on cells [9] = biological target: T1, human CD73 on cells; assay: flow cytometry on CHO cells expressing human CD73; area under MFI curve
Method: (§2) Briefly, Chinese hamster ovarian (CHO) cells were transduced with lentiviral vectors comprising a mouse, cynomolgus, or human CD73 coding sequence under the control of a CMV promoter, and stable CHO-CD73 cells were generated by antibiotic selection. Expression of CD73 was verified by flow cytometry using positive control antibodies. The stable CHO-CD73 cells were grown in suspension culture in RPMI media supplemented with 10% heat-inactivated FBS at 37° C. and 5% CO₂. […] The cells were then washed twice and analyzed using the LSRFortessa™ flow cytometer (BD Biosciences). FACS data were analyzed using FACS DIVA and WEHI Weasel software, and were plotted with Graphpad Prism software.
(§3) The affinities of the humanized anti-CD73 antibodies to membrane-associated CD73 were determined. Specifically, CHO cells ectopically expressing full-length human or cynomolgus CD73 were generated, and the binding of the antibodies to the cells were examined, using the method as described in Example 6.1.3.

cynomolgus CD73 on cells [10] = biological target: T5, cynomolgus CD73 on cells (cynomolgus, UniProt A0A2K5V5U7 27-549); assay: flow cytometry on CHO cells expressing cynomolgus CD73; area under MFI curve
T5 construct: whole, on cells; also called full-length cynomolgus CD73 on CHO cells; CD73 on cynomolgus monkey CD8+ T cells
T5 sequence: T1 sequence (looked up) with M199T, T350A, V466I
Method: as §2, §3

human CD73 on cells [11] = biological target: T1, human CD73 on cells; assay: flow cytometry, CHO cells expressing human CD73, MFI vs antibody concentration
cynomolgus CD73 on cells [12] = biological target: T5, cynomolgus CD73 on cells; assay: flow cytometry, CHO cells expressing cynomolgus CD73, MFI vs antibody concentration
human CD73 on cells [13] = biological target: T1, human CD73 on cells; assay: flow cytometry, CHO cells expressing human CD73 (panel CHO-huCD73), MFI vs antibody concentration
Method: as §2

mouse CD73 on cells = biological target: T6, mouse CD73 on cells (mouse, UniProt Q61503 29-551); assay: flow cytometry, CHO cells expressing mouse CD73 (panel CHO-muCD73), MFI vs antibody concentration
T6 construct: whole, on cells; also called full-length mouse CD73 on CHO cells (CHO-muCD73); CD73 on mouse CD8+ T cells
T6 sequence (looked up): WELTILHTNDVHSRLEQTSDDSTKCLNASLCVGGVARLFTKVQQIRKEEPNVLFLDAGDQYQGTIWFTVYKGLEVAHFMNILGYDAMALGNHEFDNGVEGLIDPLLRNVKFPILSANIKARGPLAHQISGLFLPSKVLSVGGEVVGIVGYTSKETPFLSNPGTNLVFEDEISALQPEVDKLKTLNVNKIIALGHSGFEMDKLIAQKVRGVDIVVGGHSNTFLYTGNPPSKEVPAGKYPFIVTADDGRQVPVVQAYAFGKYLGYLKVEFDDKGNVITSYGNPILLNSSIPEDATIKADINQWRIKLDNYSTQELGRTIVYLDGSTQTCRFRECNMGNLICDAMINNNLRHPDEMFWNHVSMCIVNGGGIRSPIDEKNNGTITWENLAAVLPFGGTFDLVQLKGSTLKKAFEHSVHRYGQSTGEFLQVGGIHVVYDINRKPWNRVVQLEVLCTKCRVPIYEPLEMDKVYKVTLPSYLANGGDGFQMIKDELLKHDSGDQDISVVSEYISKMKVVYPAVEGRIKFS
Method: as §2

cynomolgus CD73 on cells [14] = biological target: T5, cynomolgus CD73 on cells; assay: flow cytometry, CHO cells expressing cynomolgus CD73 (panel CHO-cyCD73), MFI vs antibody concentration
Method: as §2

B1: BA015 (antibody, human IgG1, kappa, N297A)
heavy: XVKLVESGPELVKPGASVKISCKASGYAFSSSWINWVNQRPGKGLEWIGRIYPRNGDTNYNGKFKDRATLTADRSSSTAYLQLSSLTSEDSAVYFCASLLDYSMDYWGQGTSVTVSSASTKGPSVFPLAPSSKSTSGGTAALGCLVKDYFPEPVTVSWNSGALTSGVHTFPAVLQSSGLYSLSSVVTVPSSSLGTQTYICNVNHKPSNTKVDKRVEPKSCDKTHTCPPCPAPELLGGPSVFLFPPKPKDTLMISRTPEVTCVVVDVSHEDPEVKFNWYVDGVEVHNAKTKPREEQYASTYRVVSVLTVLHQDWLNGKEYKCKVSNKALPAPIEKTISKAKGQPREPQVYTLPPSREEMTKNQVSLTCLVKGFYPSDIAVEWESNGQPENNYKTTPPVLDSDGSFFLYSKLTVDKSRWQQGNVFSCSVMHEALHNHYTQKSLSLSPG
light: DIQMTQSTSSLSASLGDRVTISCRASQDISNYLNWYQQKPDGTVKLLIYYTSRLHSGVPSRFSGSGSGTDYSLTISNLEQEDIATYFCQQGNTLPLTFGAGTKLELKRTVAAPSVFIFPPSDEQLKSGTASVVCLLNNFYPREAKVQWKVDNALQSGNSQESVTEQDSKDSTYSLSSTLTLSKADYEKHKVYACEVTHQGLSSPVTKSFNRGEC
modifications: X at position 1 is E or pyroglutamate
notes: chimeric: BA012 murine variable regions, human IgG1 N297A and human Igκ constant regions
In the case of B1, the “AUC, CD73 enzymatic activity on Jurkat cells expressing human CD73 (FIG. 2A)” value (human CD73 on cells [1]) is reported as 239, the “AUC, CD73 enzymatic activity on Jurkat cells expressing human CD73 (FIGS. 6B-6P)” value (human CD73 on cells [2]) is reported as 328 and the “AUC, enzymatic activity of immobilized recombinant human CD73 (FIGS. 7B-7P)” value [3] is reported as 91.2. For the same binder, the Kd [4] was 0.015 nM, the koff [4] was 0.00041 s⁻¹ and the kon [4] was 2.8e+07 M⁻¹ s⁻¹. It also gave a Kd [5] of 0.3 nM, a koff [5] of 8.7e-05 s⁻¹ and a kon [5] of 310000 M⁻¹ s⁻¹. It also gave a Kd [6] of 10 nM, a koff [6] of 0.0006 s⁻¹ and a kon [6] of 61000 M⁻¹ s⁻¹. The Kd [7] was 0.088 nM, the koff [7] was 0.0002 s⁻¹ and the kon [7] was 2.27e+06 M⁻¹ s⁻¹. The Kd [8] was 0.07 nM, the koff [8] was 8.3e-05 s⁻¹ and the kon [8] was 1.14e+06 M⁻¹ s⁻¹. The AUC (human CD73 on cells [9]) was 113000, the AUC (cynomolgus CD73 on cells [10]) was 2440 and the “EC50 (read off the curve)” value (human CD73 on cells [11]) was about 0.1 µg/mL. The “EC50 (read off the curve)” value (cynomolgus CD73 on cells [12]) was about 0.2 µg/mL, the “EC50 (read off the curve)” value (human CD73 on cells [13]) was about 0.2 µg/mL and the “EC50 (read off the curve)” value (mouse CD73 on cells) was about 0.4 µg/mL. The “EC50 (read off the curve)” value (cynomolgus CD73 on cells [14]) was about 0.5 µg/mL.

From patent US20190352418A1 (AGENUS, published 2019)
